Substitutions are numbered along the chain they refer to. In names and notes the source's numbering stands.
T1: tubulin (endogenous), P07437
T1 chain: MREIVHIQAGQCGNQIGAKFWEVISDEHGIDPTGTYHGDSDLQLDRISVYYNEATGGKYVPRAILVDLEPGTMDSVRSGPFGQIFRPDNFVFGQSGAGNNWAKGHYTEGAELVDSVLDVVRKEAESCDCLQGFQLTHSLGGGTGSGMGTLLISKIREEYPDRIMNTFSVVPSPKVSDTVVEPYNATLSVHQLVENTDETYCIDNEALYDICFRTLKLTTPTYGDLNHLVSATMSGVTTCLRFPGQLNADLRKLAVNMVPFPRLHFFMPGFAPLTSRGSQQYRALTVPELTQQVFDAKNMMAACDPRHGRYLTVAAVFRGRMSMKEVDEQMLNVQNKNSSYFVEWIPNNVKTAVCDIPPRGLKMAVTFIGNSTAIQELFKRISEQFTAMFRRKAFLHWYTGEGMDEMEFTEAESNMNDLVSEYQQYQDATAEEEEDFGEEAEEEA

B1: GFP-WT-HOOK3, Q86VS8 S238A (protein)
chain: MFSVESLERAELCESLLTWIQTFNVDAPCQTVEDLTNGVVMAQVLQKIDPAYFDENWLNRIKTEVGDNWRLKISNLKKILKGILDYNHEILGQQINDFTLPDVNLIGEHSDAAELGRMLQLILGCAVNCEQKQEYIQAIMMMEESVQHVVMTAIQELMSKESPVSAGNDAYVDLDRQLKKTTEELNEALSAKEEIAQRCHELDMQVAALQEEKSSLLAENQVLMERLNQSDSIEDPNAPAGRRHLQLQTQLEQLQEETFRLEAAKDDYRIRCEELEKEISELRQQNDELTTLADEAQSLKDEIDVLRHSSDKVSKLEGQVESYKKKLEDLGDLRRQVKLLEEKNTMYMQNTVSLEEELRKANAARSQLETYKRQVVELQNRLSEESKKADKLDFEYKRLKEKVDSLQKEKDRLRTERDSLKETIEELRCVQAQEGQLTTQGLMPLGSQESSDSLAAEIVTPEIREKLIRLQHENKMLKLNQEGSDNEKIALLQSLLDDANLRKNELETENRLVNQRLLEVQSQVEELQKSLQDQGSKAEDSVLLKKKLEEHLEKLHEANNELQKKRAIIEDLEPRFNNSSLKIEELQEALRKKEEEMKQMEERYKKYLEKAKSVIRTLDPKQNQGAAPEIQALKNQLQERDRLFHSLEKEYEKTKSQREMEEKYIVSAWYNMGMTLHKKAAEDRLASTGSGQSFLARQRQATSSRRSYPGHVQPATAR
B2: GFP-WT-HOOK3, Q86VS8 S707A (protein)
chain: B1 chain with A238S, S707A
B3: GFP-WT-HOOK3, Q86VS8 S238E (protein)
chain: B1 chain with A238E
B4: GFP-WT-HOOK3, Q86VS8 S238A; S707A (protein)
chain: B1 chain with S707A
B5: GFP-WT-HOOK3, Q86VS8 S238E; S707E (protein)
chain: B1 chain with A238E, S707E
B6: GFP-WT-HOOK3, Q86VS8 S707E (protein)
chain: B1 chain with A238S, S707E

Target: T1, tubulin (endogenous), P07437
Test: coIP (co-immunoprecipitation, blot band intensity quantified)
Conditions: chain shown with the change; HeLa cells, 100 ng/mL nocodazole for 16 hr (+); parent: est. 7.8; read off a plot

| response [A.U] | Binder |
| --- | --- |
| 8.8 | B1 |
| 8.5 | B2 |
| 20 | B3 |
| 19 | B4 |
| 9 | B5 |
| 12 | B6 |

— paper PMC8215223
